Source: paper PMC7572726
Values belong to the substance of their own block, whether it stands above or below them.

Experiments:
[1] = target: Capnocytophaga granulosa STING (Capnocytophaga granulosa); experiment: crystal structure
[2] = target: SfSTING with the TIR domain removed (ΔTIR) (Sphingobacterium faecium); experiment: SEC-MALS
[3] = target: TIR-only construct of SfSTING with the cyclic dinucleotide binding domain removed (ΔCDN) (Sphingobacterium faecium); experiment: SEC-MALS

Substance: Capnocytophaga granulosa STING (from UniProt A0A381HAP5 151-314) (domain or fragment)
stoichiometry N [1]: 2

stoichiometry N [2]: 2
Substance: SfSTING with the TIR domain removed (ΔTIR) (domain or fragment)

stoichiometry N [3]: 2
Substance: TIR-only construct of SfSTING with the cyclic dinucleotide binding domain removed (ΔCDN) (domain or fragment)
